Test results from US20150329637A1 (NUMAB, published 2015).

Tests used:
[1] = target: T1, human IL23R on IL-23R expressing cell lines (DLD-1, SW480, TF-1) (human, UniProt Q5VWK5 24-629); experiment: cell-based or functional assay
T1 sequence (looked up): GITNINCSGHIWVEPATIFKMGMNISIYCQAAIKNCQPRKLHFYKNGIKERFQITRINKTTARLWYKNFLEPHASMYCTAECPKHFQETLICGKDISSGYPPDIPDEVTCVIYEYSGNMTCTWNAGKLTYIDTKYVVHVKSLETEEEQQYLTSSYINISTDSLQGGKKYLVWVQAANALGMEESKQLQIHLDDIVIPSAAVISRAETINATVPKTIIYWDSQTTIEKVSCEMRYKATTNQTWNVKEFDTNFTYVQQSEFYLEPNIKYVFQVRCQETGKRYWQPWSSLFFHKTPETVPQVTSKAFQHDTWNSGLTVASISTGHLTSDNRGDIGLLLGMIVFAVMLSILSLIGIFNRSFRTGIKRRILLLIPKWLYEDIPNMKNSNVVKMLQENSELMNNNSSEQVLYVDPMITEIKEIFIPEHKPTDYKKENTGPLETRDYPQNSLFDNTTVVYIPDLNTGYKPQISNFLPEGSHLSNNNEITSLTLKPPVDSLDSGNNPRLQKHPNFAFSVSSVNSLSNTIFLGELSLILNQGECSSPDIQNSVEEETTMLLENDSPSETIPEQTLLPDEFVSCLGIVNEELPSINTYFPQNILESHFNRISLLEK

[2] = target: T2, Human IL23R extracellular domain (ECD) (human, UniProt Q5VWK5 24-355); experiment: SPR; human IL23R ECD immobilised, scDb injected
T2 construct: extracellular domain; also called human IL23R ECD
T2 sequence (looked up): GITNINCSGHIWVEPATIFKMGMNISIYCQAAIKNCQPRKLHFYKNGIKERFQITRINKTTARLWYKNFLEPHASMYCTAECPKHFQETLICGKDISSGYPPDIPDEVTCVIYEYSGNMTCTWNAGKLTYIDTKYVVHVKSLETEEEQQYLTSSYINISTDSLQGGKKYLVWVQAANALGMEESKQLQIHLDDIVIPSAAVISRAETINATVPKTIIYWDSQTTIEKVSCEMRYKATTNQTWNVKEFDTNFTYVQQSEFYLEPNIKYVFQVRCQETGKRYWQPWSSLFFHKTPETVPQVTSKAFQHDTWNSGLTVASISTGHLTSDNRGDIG
Protocol: [000154] For affinity measurements to IL23R, human IL23R extracellular domain (produced on request by Trenzyme) was immobilized on a sensor chip (SPR-2 Affinity Sensor High Capacity Amine, Sierra Sensors) using a standard amine-coupling procedure. Two-fold serial dilutions of scDbs ranging from 90 to 5.6 nM were injected into the flow cells for 3 min and dissociation of the protein from the immobilized IL23R on the sensor chip was allowed to proceed for 720 sec. After each injection cycle, surfaces were regenerated with a 1 min injection of 10 mM Glycine-HCl pH 2.0. The apparent dissociation (kd) and association (ka) rate constants and the apparent dissociation equilibrium constant (KD) are calculated with the MASS-1 analysis software (Analyzer, Sierra Sensors) using one-to-one Langmuir binding model.

[3] = target: T3, human heterodimeric single-chain CD3γδ extracellular domain (produced in-house) (human); experiment: SPR; human single-chain CD3 ECD immobilised, scDb injected
T3 chain: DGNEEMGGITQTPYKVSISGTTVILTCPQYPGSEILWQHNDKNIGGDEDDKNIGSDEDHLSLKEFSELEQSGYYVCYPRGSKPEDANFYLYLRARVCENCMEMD

EC50 of specific target cell lysis [nM], DLD-1 [1]: 45.4 nM | EC50 of specific target cell lysis [nM], SW-480 [1]: 71.7 nM | EC50 of specific target cell lysis [nM], TF-1 [1]: 39.8 nM | Kd [2]: 0.182 nM | Kd [3]: 11.6 nM | koff [3]: 0.00126 s⁻¹ | kon [3]: 109000 M⁻¹ s⁻¹
B1: PRO165 (bispecific antibody)
chain: DIQMTQSPSSLSASVGDRVTITCQASENIYSFLAWYQQKPGKAPKLLIYSASKLAAGVPSRFSGSGSGTDFTLTISSLQPEDFATYYCQQTNRYSNPDIYNVFGQGTKLTVLGGGGGSEVQLVESGGGLVQPGGSLRLSCAASGFPLSSYAMIWVRQAPGKGLEWIGMILRAGNIYYASWVKGRFTISRDNSKNTVYLQMNSLRAEDTAVYYCARRHYNREGYPIGIGDLWGQGTLVTVSSGGGGSGGGGSGGGGSGGGGSDIQMTQSPSSLSASVGDRVTITCQSSESVYNNKRLSWYQQKPGKAPKLLIYTASSLASGVPSRFSGSGSGTDFTLTISSLQPEDFATYYCQGEFTCSNADCFTFGQGTKLTVLGGGGGSEVQLVESGGGLVQPGGSLRLSCAASGIDFNSNYYMCWVRQAPGKGLEWIGCIYVGSHVNTYYANWAKGRFTISRDNSKNTVYLQMNSLRAEDTAVYYCATSGSSVLYFKFWGQGTLVTVSS
notes: also called anti-IL23RxCD3ε scDb
